Measurements published in the Immune Epitope Database (IEDB).

Key:
Assay in all cases: IEDB peptide-MHC binding, purified MHC/competitive/radioactivity; filed as Kd, often an IC50 or EC50 that approximates it; ≥ and ≤ were set here for values at or beyond the usual limits of such assays
HLA-A*02:02 = conditions: source organism: Vaccinia virus WR
HLA-A*02:03 = target: HLA-A*02:03
HLA-A*02:06 = conditions: source organism: Vaccinia virus WR
HLA-A*68:01 = target: HLA-A*68:01
HLA-A*03:01 = target: HLA-A*03:01
HLA-A*33:01 = target: HLA-A*33:01
HLA-A*11:01 = target: HLA-A*11:01
HLA-A*31:01 = target: HLA-A*31:01
[1] = source organism: Vaccinia virus WR
[2] = source organism: SARS coronavirus Tor2
[3] = source organism: Mammarenavirus juninense

Sequence	Kd (HLA-A*02:02) [µM]	Kd (HLA-A*02:03; [1]) [µM]	Kd (HLA-A*02:06) [µM]	Kd (HLA-A*68:01; [1]) [µM]	Kd (HLA-A*03:01; [1]) [µM]	Kd (HLA-A*33:01; [1]) [µM]	Kd (HLA-A*11:01; [1]) [µM]	Kd (HLA-A*31:01; [1]) [µM]	further results
DVQRTRCKYV	1.07	6.47	9.51						
DITNILGGVL	12.3	3.68	18.9						
IMEIVSHLRA	0.955	0.396	4.41						
YIALCKVTV	0.0122	0.024	0.0188						
NIYRLFTRCA	9.89	0.138	0.0229						
SMDVLAEKKY				2.64	≥ 28.5	≥ 29.3	≥ 10	17.1	
STYSDICSK				0.00206	0.0236	0.988	0.000706	0.0802	
NLETYTRPEI	0.539	1.5	0.636						
YVKSPKFSK									Kd (HLA-A*68:01; [2]): 0.0655 µM; Kd (HLA-A*03:01; [2]): 6.98 µM; Kd (HLA-A*33:01; [2]): 7.52 µM; Kd (HLA-A*11:01; [2]): 0.259 µM; Kd (HLA-A*31:01; [2]): 2.32 µM
MVGLFSNNPH									Kd (HLA-A*68:01; [3]): 0.05 µM; Kd (HLA-A*03:01; [3]): ≥ 30.2 µM; Kd (HLA-A*33:01; [3]): 0.398 µM; Kd (HLA-A*11:01; [3]): 5.96 µM; Kd (HLA-A*31:01; [3]): 0.106 µM
ATSRTLSYYK									Kd (HLA-A*68:01; [2]): 0.0153 µM; Kd (HLA-A*03:01; [2]): 0.00332 µM; Kd (HLA-A*33:01; [2]): 6.23 µM; Kd (HLA-A*11:01; [2]): 0.00316 µM; Kd (HLA-A*31:01; [2]): 0.0149 µM
NQVIVNNLDK									Kd (HLA-A*68:01; [2]): 13.4 µM; Kd (HLA-A*03:01; [2]): ≥ 28.9 µM; Kd (HLA-A*33:01; [2]): ≥ 70 µM; Kd (HLA-A*11:01; [2]): 13.3 µM; Kd (HLA-A*31:01; [2]): ≥ 40.7 µM
LVLLILMTAR									Kd (HLA-A*68:01; [2]): 6.75 µM; Kd (HLA-A*03:01; [2]): 3.78 µM; Kd (HLA-A*33:01; [2]): 5.5 µM; Kd (HLA-A*11:01; [2]): 8.74 µM; Kd (HLA-A*31:01; [2]): 0.918 µM
PTFQLLNMIK				≥ 10	9.05	≥ 70	0.0938	12.5	
SLIGLTARA									Kd (HLA-A*02:03; source organism: Dengue virus 1 Brazil/97-11/1997): 0.00413 µM
KFGKNHIHR				≥ 49.1	12.3	5.31	≥ 35.8	0.00447	
WLSMTDEMR				0.0344	≥ 78	6.28	≥ 46.3	1.79	
KFVFPLNSK									Kd (HLA-A*68:01; [2]): 8.65 µM; Kd (HLA-A*03:01; [2]): 0.17 µM; Kd (HLA-A*33:01; [2]): ≥ 53.6 µM; Kd (HLA-A*11:01; [2]): 1.27 µM; Kd (HLA-A*31:01; [2]): 0.0744 µM
PVETLFGSY				≥ 33.5	≥ 38.9	≥ 77.7	2.2	≥ 62.3	
